Test results reported in US20030078221.

How the values were obtained:
[1] = target: Complement C5 (Homo sapiens) (UniProt P01031+P01031); test: filter; settings: 2'-F pyrimidines
Complement C1q = Complement C1q (Homo sapiens?) (UniProt P02745+P02746+P02747); test: filter; settings: MgPBS 37C
Complement C1q (Homo sapiens?), sequence (P02745 23-245, chain 1 of 3): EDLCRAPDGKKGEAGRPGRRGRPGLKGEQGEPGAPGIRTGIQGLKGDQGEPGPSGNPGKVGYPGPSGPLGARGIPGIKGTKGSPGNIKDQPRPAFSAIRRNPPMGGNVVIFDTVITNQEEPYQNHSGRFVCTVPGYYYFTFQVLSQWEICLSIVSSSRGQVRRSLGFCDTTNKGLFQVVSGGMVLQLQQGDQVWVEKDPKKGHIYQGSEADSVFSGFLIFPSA
Complement C1q (Homo sapiens?), sequence (P02746 28-253, chain 2 of 3): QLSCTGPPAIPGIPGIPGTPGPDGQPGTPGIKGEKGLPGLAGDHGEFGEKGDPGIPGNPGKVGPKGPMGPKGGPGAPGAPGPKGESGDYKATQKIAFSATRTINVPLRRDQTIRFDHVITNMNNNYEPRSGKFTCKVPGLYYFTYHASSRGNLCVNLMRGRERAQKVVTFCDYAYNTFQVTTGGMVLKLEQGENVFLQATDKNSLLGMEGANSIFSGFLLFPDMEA
Complement C1q (Homo sapiens?), sequence (P02747 29-245, chain 3 of 3): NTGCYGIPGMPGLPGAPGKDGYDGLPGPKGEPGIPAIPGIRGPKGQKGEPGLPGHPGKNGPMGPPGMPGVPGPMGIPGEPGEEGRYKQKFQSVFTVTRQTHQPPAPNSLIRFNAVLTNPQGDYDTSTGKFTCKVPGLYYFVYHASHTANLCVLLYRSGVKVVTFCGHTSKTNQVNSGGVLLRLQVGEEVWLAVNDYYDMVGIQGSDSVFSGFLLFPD

Work on “GGGAGGACGAUGCGGNNNNNNNNNNNNNNNNNNNNNNNNNNNNNNCAGACGACUCGCCCGA [random 30N7 2'-F RNA pool]” yielded a Kd ([1]; random pool, likely should be larger) greater than 1 nM and a Kd (Complement C1q; 2'-F pyrimidines) of 2300 nM.

In the case of “GGGAGGACGAUGCGGUGUUCAGCAUUCAGNAUCUUCACGUGUCGUCAGACGACUCGCCCGA [G3]”, the Kd ([1]; MgPBS 37C) is reported as 55 nM.

Sequence “GGGAGGACGAUGCGGNNNNNNNNNNNNNNNNNNNNNNNNNNNNNNNNNNNNNNNNNNNNNNNNNNCAGACGACUCGCCCGA [random 50N7 2'-NH2 RNA pool]” has a Kd (Complement C1q; 2'-NH2 pyrimidines) of 2300 nM.
